T1: hPot1p (Homo sapiens, UniProt Q9NUX5 Q9NUX5:1-634)
T1 sequence: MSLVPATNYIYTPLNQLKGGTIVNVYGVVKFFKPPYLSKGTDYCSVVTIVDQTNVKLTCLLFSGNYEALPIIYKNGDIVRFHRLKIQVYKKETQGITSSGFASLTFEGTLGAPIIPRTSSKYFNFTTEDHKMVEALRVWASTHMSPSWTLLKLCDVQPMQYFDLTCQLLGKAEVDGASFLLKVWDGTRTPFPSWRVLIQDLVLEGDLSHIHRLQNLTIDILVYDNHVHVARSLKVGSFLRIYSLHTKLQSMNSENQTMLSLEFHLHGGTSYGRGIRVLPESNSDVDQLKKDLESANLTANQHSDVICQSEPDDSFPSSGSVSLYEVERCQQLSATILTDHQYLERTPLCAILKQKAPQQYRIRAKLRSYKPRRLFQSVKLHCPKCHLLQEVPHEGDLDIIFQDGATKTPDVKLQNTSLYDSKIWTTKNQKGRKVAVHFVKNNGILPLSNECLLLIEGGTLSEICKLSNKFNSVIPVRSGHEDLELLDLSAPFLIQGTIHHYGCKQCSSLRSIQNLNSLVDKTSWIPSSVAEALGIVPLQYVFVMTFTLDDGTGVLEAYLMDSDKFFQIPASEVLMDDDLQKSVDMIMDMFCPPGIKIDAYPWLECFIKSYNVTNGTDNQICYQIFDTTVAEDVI

T2: SpPot1p N-terminal 22 kDa fragment (Schizosaccharomyces pombe, UniProt O13988 O13988:1-185)
T2 sequence: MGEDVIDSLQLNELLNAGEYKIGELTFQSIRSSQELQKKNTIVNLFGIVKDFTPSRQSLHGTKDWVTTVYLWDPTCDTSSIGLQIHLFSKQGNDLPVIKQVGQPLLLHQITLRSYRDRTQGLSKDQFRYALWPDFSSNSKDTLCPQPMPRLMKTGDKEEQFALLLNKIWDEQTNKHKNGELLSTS

T3: SpPot1p (Pot1, full length) (Schizosaccharomyces pombe, UniProt O13988 O13988:1-555)
T3 sequence: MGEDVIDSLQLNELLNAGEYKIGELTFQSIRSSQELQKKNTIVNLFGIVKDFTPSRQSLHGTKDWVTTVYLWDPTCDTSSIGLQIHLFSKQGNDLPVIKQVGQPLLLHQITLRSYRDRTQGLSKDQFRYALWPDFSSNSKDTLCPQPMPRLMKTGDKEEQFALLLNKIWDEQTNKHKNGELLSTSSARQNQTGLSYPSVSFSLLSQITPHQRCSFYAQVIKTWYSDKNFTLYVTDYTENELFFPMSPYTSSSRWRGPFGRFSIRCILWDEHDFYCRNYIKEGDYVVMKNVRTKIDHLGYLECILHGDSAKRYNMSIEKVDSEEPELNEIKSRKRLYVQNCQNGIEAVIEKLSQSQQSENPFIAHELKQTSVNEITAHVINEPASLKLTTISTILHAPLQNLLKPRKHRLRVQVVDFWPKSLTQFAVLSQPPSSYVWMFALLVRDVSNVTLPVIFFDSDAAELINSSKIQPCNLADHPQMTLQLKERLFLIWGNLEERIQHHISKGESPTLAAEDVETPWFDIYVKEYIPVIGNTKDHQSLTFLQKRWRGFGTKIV


These binders were tested against T1, hPot1p (assay: listed as hPot1p-binding oligonucleotide). Details: tags: N-terminal His6 (pQE30); E. coli.

| Binder | binding result |
| --- | --- |
| TTAGGGTTAGGGTTAGGGTT (ssDNA) [PBoli177] | binds |
| GGTTAGGGTTAGGGTTAGGG (ssDNA) [PBoli178] | binds |

The binders below were run against T1, hPot1p (assay: EMSA; same conditions as SpPot1p). Details: tags: N-terminal His6 (pQE30); E. coli; label: 32P.

| Binder | binding result |
| --- | --- |
| TTAGGGTTAGGGTTAGGGTTAGGGTTAGGG (ssDNA) [human G-strand (TTAGGG)5 (PBoli179)] | binds |

Each binder was assayed against T2, SpPot1p N-terminal 22 kDa fragment (assay: EMSA; truncated Pot1p-DNA complex seen in mixture with full-length protein). Details: tags: N-terminal V5 and His6 tags; present in mixture with full-length protein; label: 5' 32P.
Description: FIG. 3B: Same as FIG. 3A except that the added protein contained truncated Pot1p as well as full length protein. Truncated Pot1p-DNA complex is indicated by a closed arrow.
(§1) C-strand ([…]) and G-strand ([…]) were 5′ ³²P-labeled using T4 polynucleotide kinase and γ-³²P-ATP. Duplex DNA was generated by annealing equimolar amounts of radiolabeled C-strand and unlabelled G-strand. Binding reactions (10 μl) were carried out in 25 mM HEPES (pH 7.5), 1 mM EDTA, 50 mM NaCl, 5% glycerol, and 2.5 μM PBoli109 ([…]) as non-specific competitor. Pot1p (50 ng) was incubated with the indicated DNA substrates (1 ng) for 15 min at 20° C. Complexes were analyzed by electrophoresis at 4° C. through a 4-20% TBE gel (Invitrogen) run at 150 V for 80 min. The Pot1p-DNA complex is indicated by an open arrow in FIG. 3A. […] Truncated Pot1p-DNA complex is indicated by a closed arrow.

| Binder | binding result |
| --- | --- |
| GGTTACACGGTTACAGGTTACAGGTTACAGGGTTACGGTTACG (ssDNA) [S. pombe G-strand (PBoli112)] | binds |

The binders below were run against T3, SpPot1p (Pot1, full length) (assay: EMSA; 25 mM HEPES pH 7.5, 1 mM EDTA, 50 mM NaCl, 5% glycerol, 20 C, PBoli109 competitor). Details: tags: N-terminal V5 and His6 tags plus pQE30 N-terminal His6; E. coli M15; label: 5' 32P.
Description: as §1

| Binder | binding result |
| --- | --- |
| GGTTACACGGTTACAGGTTACAGGTTACAGGGTTACGGTTACG (ssDNA) [S. pombe G-strand (PBoli112)] | binds |

Each binder was assayed against T3, SpPot1p (Pot1, full length) (assay: listed as SpPot1p-binding oligonucleotide). Details: tags: N-terminal V5 and His6 tags plus pQE30 N-terminal His6; E. coli M15.

| Binder | binding result |
| --- | --- |
| CGGTTACACGGTTACAGGT (ssDNA) [PBoli53] | binds |
| GTTACAGGTTACGGTTACGG (ssDNA) [PBoli54] | binds |
| TGTGGTGTGTGGGTGTGCGGTT (ssDNA) [PBoli86] | binds |
| GGTTACACGGTTACAGGTTACAGGTTACAG (ssDNA) [PBoli110] | binds |
| CTGTAAGCATATCATCATTCGAGGTTAC (ssDNA) [PBoli183] | binds |
| GGTTACGCATATCATCATTCGAATCTCG (ssDNA) [PBoli184] | binds |
| CTGTAAGCATATCATCGGTTACGGTTAC (ssDNA) [PBoli185] | binds |
| GGTTACGGTTACCATCATTCGAATCTCG (ssDNA) [PBoli186] | binds |
| CTGTAAGCATATGGTTACTCGAATCTCG (ssDNA) [PBoli187] | binds |
| CTGTAAGCGGTTACGGTTACGAATCTCG (ssDNA) [PBoli188] | binds |
| GGTTACAGGTTACAGGTTAC (ssDNA) [PT1] | binds |
| GGTTACGGTTACAGGTTACA (ssDNA) [PBoli52] | binds |

— patent US20020137703, “Protection-of-telomere-1 (POT-1) protein and encoding polynucleotides” (published 2002)
